Measurements reported in article PMC4529235.

What was measured:
[1] = molecular target: trimeric ASIC1a concatemeric fusion protein 3_(ASIC)FP (H8-(hA1a-N1Q7)2-hA1a) (human) (UniProt P78348); assay: cross-linking; BMOE (0.5 or 2 mM) at the cell surface of Xenopus oocytes and CHO cells before lysis, cell-surface biotinylated fractions, SDS-PAGE under reducing conditions, anti-ASIC1a western blot; band intensities pooled over oocytes and CHO cells
[2] = molecular target: trimeric ASIC1a concatemeric fusion protein 3_(ASIC)FP (H8-(hA1a-N1Q7)2-hA1a) (human) (UniProt P78348); assay: cross-linking; oxidation with 0.3 mM NaTT (20 min, 4°C) of Ni-NTA affinity-purified fractions from Xenopus oocytes and CHO cells, on the beads; non-reducing SDS-PAGE, anti-ASIC1a western blot

percent of ASIC1a that migrates as the tetramer [1]: > 60%
percent of ASIC1a that migrates as the tetramer [2]: > 60%
Substance: single ASIC1a subunit available in cells expressing 3_(ASIC)FP
